We go through 20 sequences from the Immune Epitope Database (IEDB).

What is called IC50 is the concentration that gives 50% inhibition.

One assay concerns the target HLA-B*44:03. In words: IEDB peptide-MHC binding, purified MHC/competitive/radioactivity; ≥ and ≤ were set here for values at or beyond the usual limits of such assays. The following applies: source organism: Bordetella pertussis.
On to PELGAAIRV, for which the 50% inhibitory concentration (IC50) amounted to 6.51 µM.
In the case of TRQGIMDQY, the IC50 worked out at 63.9 µM.
The same measure, in the same setting: to TTEYPNARY belongs 63.5 µM.

For the next assay, the target named is HLA-B*07:02. The description is as above. The following applies: source organism: Bordetella pertussis.
With QPLPPRPVA, the IC50 worked out at 8.37 µM.

A further assay addresses HLA-B*57:01. The assay is described as above. To be noted: source organism: Bordetella pertussis.
Regarding DNEGKMESN, the IC50 is at least 70.4 µM.
On to RGSAATFTL, for which the concentration for half-maximal inhibition (IC50) was found to be 10.7 µM.

The next assay deals with HLA-A*02:01. The assay is described as above. The following applies: source organism: Bordetella pertussis.
FVWYVDTVI: the IC50 amounted to 0.802 µM.
Still for that read-out and setting: to GIGALKAGA belongs 69.4 µM; to ILLENPAAE, 18.7 µM; to SLFAPHGNV, 7.09 µM.
VSSPPPVSV: the IC50 is 49.5 µM.

A further assay has as its target HLA-B*53:01. Described as above. The following applies: source organism: Bordetella pertussis.
On to AIRVGRGAR, for which the IC50 stood at 52.7 µM.
For the sequence AQQLKQADR, the IC50 is 47.2 µM.
For FVWYVDTVI, the IC50 was 30.2 µM.
On to LPLKANPMH, for which the IC50 was at least 78.2 µM.
Regarding LPVSLTALD, the IC50 worked out at 23.1 µM.
TFEGKPALE: the IC50 was 46 µM.
As to VVDGPPSRP, the 50% inhibitory concentration (IC50) amounted to 69.9 µM.

The next assay has as its target HLA-B*35:01. The description is as above. To be noted: source organism: Bordetella pertussis.
For the sequence EVAKVEVVP, the IC50 amounted to 69.9 µM.
Consider LPVSLTALD, for which the IC50 turned out to be 7.12 µM.
As for MDAKGGTLL, the IC50 turned out to be 69.9 µM.
In the case of VPASGAPAA, the IC50 came out at 4.66 µM.
